Experimental findings from patent publication US20230338565A1, “ANTIBODY DRUG CONJUGATE, PREPARATION METHOD THEREFOR AND USE THEREOF” (SICHUAN KELUN-BIOTECH BIOPHARMACEUTICAL CO., LTD., priority 2020, published 2023) are described below.

In data set [1] the target is T1, human Claudin 18.2 on cell membrane (Homo sapiens, UniProt P56856).
T1 construct: expressed in transfected cells
The data set can be described thus: Affinity to HEK293T-Claudin 18.2 by flow cytometry. The conditions noted are these: binding to HEK293T-Claudin 18.2 cells. The protocol:
(§1) The affinity of 2C6.9-hz21 to human Claudin 18.2 on cell membrane was detected using HEK293T-Claudin 18.2 cells. The specific procedures were as follows: HEK293T-Claudin 18.2 cells were detached and centrifuged, followed by being washed twice with PBS. And then the cells were resuspended in PBS containing 1% BSA and were plated into a 96-well tip bottom plate at 300000 cells per well in a volume of 50 μl for 20 wells in total. […] of 2C6.9-hz21 and IMAB362 antibody were separately then added with 11 concentrations starting from 1000 nM with three-fold dilution to each well. Human IgG was served as negative control. The reactions were mixed well and incubated for 1 h at 4° C. in the dark, followed by three times of washing with PBS, the FITC-labelled anti-human Fc secondary antibody (Biolegend, 409322) was added and incubated for 0.5 h at 4° C. in the dark. Detection was performed by flow cytometry (Beckman, Cytoflex) after being washed for three times with PBS.
For orientation: In flow cytometry, cells or beads pass a laser one at a time.

Data set [2] relates to HEK293T-Claudin 18.2 cells. In words: ADCC, NK cell mediated killing assay. The data set is classed as cell-based, human. The conditions noted are these: NK92MI-CD16a effector cells, LDH detection. The protocol:
2C6.9 belongs to IgG1 subtype and has relative strong antibody-dependent cell-mediated cytotoxicity (ADCC). NK cell mediated killing assay was used to determine the ADCC activity of 2C6.9. The specific procedures were as follows: HEK293T-Claudin 18.2 cells were harvested and centrifuged, followed by adjustment of cell density. 1×10^4/well of cells were plated on a plate and incubated overnight. The medium was removed on the next day. NK92MI-CD16a cells (Huabo Biopharm) were centrifuged, resuspended in MEMA medium and adjusted to 1×10^6/mL, then 50 μL/well cells were added to the corresponding wells. 2C6.9-hz21 and IMAB362 antibodies were diluted with MEMA medium. For HEK293T-Claudin18.2 cells, 10 antibody concentrations were tested, starting from 40 μg/mL with 5-fold dilution. For NUGC-4 cells, 11 antibody concentrations were tested, starting from 2 mg/mL with 5-fold dilution. 50 μL/well of the diluted antibodies were added to the corresponding wells and the reactions were left to stand in incubator at 37° C., 5% CO2 and incubated for 5.5 h. Lysis buffer was then added to the positive control well and incubated for another 0.5 h. 50 μL/well of Lactate Dehydrogenase (LDH) detection agent (DOJINDO LABORATORISE, CK12) were added to the wells and the absorbance at 490 nm were taken every 10 min on a microplate reader (MD, SpectraMax M2). […]

A further data set deals with T2, human Claudin 18.2 (Homo sapiens, UniProt P56856).
T2 construct: expressed in transfected cells; cells formaldehyde-fixed for the cell ELISA
The data set can be described thus: Cell ELISA on L929-Claudin 18.2 cells. The conditions noted are these: binding to L929-Claudin 18.2 cells, Cellular ELISA. The protocol:
Human Claudin18.2 belongs to the tetraspanin family and has a complex structure. Cell ELISA was thus carried out to maintain the structure of Claudin18.2. The stable cell lines L929-Claudin 18.2 constructed in 6.1 were used for detection. Specifically, L929-Claudin 18.2 adherent cells were detached by 2 mM EDTA treatment. The cells were resuspended and adjusted to 2×10^5/mL and 100 μL of the resuspension was plated into a 96-well plate and incubated overnight at 37° C. The next day, the media was removed, and the plate was washed with PBS once. 100 μL/well 4% formaldehyde was added to the plate. After 30 min of incubation at room temperature, formaldehyde was removed, followed by being washed twice with PBS. Blocking buffer (PBS containing 2% BSA) was then added to the plate at 100 μL/well, and incubated at 37° C. for 2 h. After removal of blocking buffer, 100 μL/well of serially diluted antibodies (starting from 1 μM, with 4-fold dilution, for a total of 11 concentrations) were added to the corresponding wells, which were incubated at 37° C. for 2 h afterwards. The plate was washed with 250 μL PBST for 5 times, and was allowed to stand for 2 min each time. […] The OD450 nm absorbance values were obtained on a plate reader (MD, SpectraMax M2) and the results were subjected to curve fitting by Graphpad Prism. […]

For data set [3], the target named is T3, human Claudin18.2 (human, UniProt P56856-2 1-261). The data set can be described thus: cell-based or functional assay.
Data set [4] concerns the target T3, human Claudin18.2. The data set can be described thus: flow cytometry on HEK293T-Claudin 18.2 cells, FITC anti-human Fc secondary antibody. The protocol: as §1, with “The” for “The affinity of 2C6.9-hz21 to human Claudin 18.2 on cell membrane was detected using HEK293T-Claudin 18.2 cells. The”
Data set [5] concerns the target T3, human Claudin18.2. The data set can be described thus: cell-based or functional assay. The source holds these as a separate data set.
In data set [6] the target is T3, human Claudin18.2. The data set can be described thus: cell ELISA on formaldehyde-fixed L929-Claudin 18.2 cells, HRP anti-human IgG. The protocol: (§2) Human Claudin18.2 belongs to the tetraspanin family and has a complex structure. Cell ELISA was thus carried out to maintain the structure of Claudin18.2. […] The cells were resuspended and adjusted to 2×10⁵/mL and 100 μL of the resuspension was plated into a 96-well plate and incubated overnight at 37° C. The next day, the media was removed, and the plate was washed with PBS once. 100 μL/well 4% formaldehyde was added to the plate. After 30 min of incubation at room temperature, formaldehyde was removed, followed by being washed twice with PBS. Blocking buffer (PBS containing 2% BSA) was then added to the plate at 100 μL/well, and incubated at 37° C. for 2 h. After removal of blocking buffer, 100 μL/well of serially diluted antibodies (starting from 1 μM, with 4-fold dilution, for a total of 11 concentrations) were added to the corresponding wells, which were incubated at 37° C. for 2 h afterwards. The plate was washed with 250 μL PBST for 5 times, and was allowed to stand for 2 min each time. 100 μL/well of horseradish peroxidase labeled anti-Human IgG secondary antibody (HRP-anti-Human IgG, Jackson ImmunoResearch, 109-035-003) diluted 1:10000 in PBS (containing 2% BSA) was added to the plate. […] The OD450 nm absorbance values were obtained on a plate reader (MD, SpectraMax M2) and the results were subjected to curve fitting by Graphpad Prism.
For orientation: ELISA stands for enzyme-linked immunosorbent assay.

Data set [7] deals with T3, human Claudin18.2. The data set can be described thus: cell-based or functional assay. This is another data set of the same source.
A further data set addresses T4, human Claudin18.1 (human, UniProt P56856 1-261).
T4 construct: whole, on cells
The data set can be described thus: flow cytometry on HEK293T-human Claudin 18.1 cells, FITC anti-human Fc secondary antibody. The protocol:
The specificity of candidate antibodies was detected by FACS. […] After being washed twice with PBS, the cells were resuspended with PBS containing 1% BSA. 300000 cells for each cell line were added with the candidate antibodies at a final concentration of 1000 nM, mixed well, and incubated for 1 h at 4° C., protected from light. Then the cells were washed for three times with PBS and FITC-labeled anti-human Fc secondary antibody (BioLegend, 409322) was added, followed by 0.5 h of incubation at 4° C. in the dark. Detection was performed by flow cytometry (Beckman, Cytoflex) after being washed with PBS for three times.

Data set [8] concerns the target T3, human Claudin18.2. In words: cell ELISA on L929-Claudin 18.2 cells. The protocol:
as §2

On to “IMAB362: control anti-Claudin 18.2 antibody, sequences from patent CN 101312989 B [reference compound]”, for which the “Max MFI” value in data set [1] came to 156715.7. The “Max. cytotoxicity (%)” value in data set [2] is 20%. Besides, in the data set with human Claudin 18.2, the “Max signal value (OD450)” value amounted to 0.53.

B1: IMAB362 (antibody, V domains shown)
VH: QVQLQQPGAELVRPGASVKLSCKASGYTFTSYWINWVKQRPGQGLEWIGNIYPSDSYTNYNQKFKDKATLTVDKSSSTAYMQLSSPTSEDSAVYYCTRSWRGNSFDYWGQGTTLTVSS
VL: DIVMTQSPSSLTVTAGEKVTMSCKSSQSLLNSGNQKNYLTWYQQKPGQPPKLLIYWASTRESGVPDRFTGSGSGTDFTLTISSVQAEDLAVYYCQNDYSYPFTFGSGTKLEIKR
In general, EC50 refers to the concentration giving half of the maximal effect. Read a low EC50 as greater potency. As to B1, the “CDC activity, EC50 value” in the data set with human Claudin18.2 [3] stood at 3.32 µg/mL. The 50% effective concentration (EC50) with human Claudin18.2 [4] was found to be 8.22 nM; in the data set with human Claudin18.2 [6], 0.15 nM. In addition, in the data set with human Claudin18.2 [5], the “ADCC activity, EC50 value” is 0.0577 µg/mL.

B2: humanized antibody 2C6.9-hz21 (antibody, human IgG1, kappa, V domains shown)
VH: QVQLQESGPGLVKPSETLSLTCTVSGFSLTRYGVSWIRQPPGKGLEWIGVIWGEGNTNYNPSLKSRVTISKDSSKSQVSLKLSSVTAADTAVYYCARVNFGNALDYWGQGTLVTVSS
VL: DIVMTQSPDSLAVSLGERATINCKSSQSLLNSGNQKNYLTWYQQKPGQPPKLLIYWASTRDSGVPDRFSGSGSGTDFTLTISSLQAEDVAVYYCQNDFIFPLTFGGGTKVEIKR
notes: Humanized from murine 2C6.9M; Expressed in Expi293F cells and purified on protein A; also called 2C6.9 mAb; humanized monoclonal antibody 2C6.9
In the case of B2, in the data set with human Claudin18.2 [7], the “4-hour internalization ratio on NUGC-4 cells (flow cytometry)” value worked out at 37.8%. In the data set with human Claudin18.2 [3], the “CDC activity, EC50 value” turned out to be 1.36 µg/mL. Moreover, the EC50 with human Claudin18.2 [4] was found to be 5.77 nM; with human Claudin18.2 [6] it was 0.12 nM. Also, in the data set with human Claudin18.1, the binding result is given as “no binding (tested: 1000 nM)”. For the same molecule, the “ADCC activity, EC50 value” in the data set with human Claudin18.2 [5] was 0.0677 µg/mL.

B3: humanized antibody 2C6.9-hz11 (antibody, human IgG1, kappa, V domains shown)
VH: QVQLQESGPGLVKPSETLSLTCTVSGFSLTRYGVSWIRQPPGKGLEWIGVIWGDGNTNYNPSLKSRVTISKDSSKSQVSLKLSSVTAADTAVYYCARVNFGNALDYWGQGTLVTVSS
VL: DIVMTQSPDSLAVSLGERATINCKSSQSLLNSGNQKNYLTWYQQKPGQPPKLLIYWASTRDSGVPDRFSGSGSGTDFTLTISSLQAEDVAVYYCQNDFIFPLTFGGGTKVEIKR
notes: Human IgG1 / kappa
With B3, in the data set with human Claudin18.2 [8], the binding result was “binds”.
